Results taken from patent US20260092179A1, “GENETICALLY MODIFIED HOST CELLS PRODUCING VIOLACEIN, ANALOGUES, AND DERIVATIVES THEREOF” (OCTARINE BIO APS, priority 2022, published 2026).
Each block holds one molecule with its values, some of them ahead of it.

Experiments:
[1] = In vitro glycosylation of proviolacein by purified UGT enzymes (% conversion); type: biochemical; settings: 350 μM proviolacein, 24 h incubation at 30° c.
Experimental: (§1) Glycosyltransferase (UGT) enzymes were produced and purified as follows. 5 mL of 2× concentrated LB medium+appropriate antibiotic (50 μg/mL) was inoculated with E. coli XJb (DE3) strains expressing a plasmid of interest and incubated overnight at 30° C. with shaking. The following day, 50 ml TB medium+antibiotic in 250 ml baffled flasks was inoculated with 0.5 mL overnight cell culture and incubated for 3.5 hrs at 30° C. The cell cultures were then induced with 3 mM arabinose, 0.1 mM IPTG and Incubated for 24 h at 25° C., with shaking. The following day, the cells were collected by centrifugation at 6500×g for 10 mins at 4° C. Cells were resuspended in 5 mL ice-cold protein extraction buffer (50 mM Tris-HCl pH7.4+1 mM phenylmethanesulfonyl fluoride+1 cOmplete™, mini, EDTA-free Protease Inhibitor Cocktail tablet (Roche). The resuspended material was transferred to five 1.5 mL eppendorf tubes and kept at −80° C. for at least 15 mins. The tubes were then thawed at room temperature, as the tubes were thawing the following reagents were added; 2.6 mM MgCl2, 1 mM CaCl2, 300 U/mL DNase solution (DENARASE®, C-lecta) and 0.2 mg/mL lysozyme (Sigma) dissolved in MilliQwater. Tubes were gently inverted to mix then were incubated for 10-15 mins at 37° C. […] of 4× Binding buffer was then added to the tubes (to final concentration of 50 mM Tris-HCl pH7.4, 10 mM imidazole, 500 mM NaCl and the pH adjusted to 7.4 with HCl). The mix was centrifuged at 10000×g for 30 mins at 4° C., the supernatant transferred to a fresh eppendorf tubes and centrifuged again to remove any remaining cellular debris at 10000×g for 30 minutes at 4° C. While the enzyme prep was centrifuging, HisPur 0.2 ml spin column (Thermo Scientific) are prepared as instructed by manufacturer. HisPur column was washed with MilliQ water and equilibrated with two resin-bed volumes of 1×his-binding buffer two times. HisPur column was centrifuged at 700×g for 2 minutes to remove buffer. 600 μL of collected supernatant from the centrifuged enzyme preparation was transferred to the HisPur column and then incubated at 4° C. with gentle shaking by inversion for 30 minutes. After 30 minutes, the unbound protein was removed by centrifugation 700×g for 2 min. The remaining 600 μL of collected supernatant from the centrifuged enzyme preparation was loaded to the HisPur column and incubated again at 4° C. with shaking. Unspecific binding of other proteins was removed by washing twice with 1× binding buffer (50 mM Tris-HCl, 0.5M NaCl, 10 mM Imidazole, pH 7.4). Enzyme was resuspended in 200 μl elution buffer for 2 minutes before elution by centrifugation (700×g for 2 minutes at 4° C.). Enzymes were used immediately in in vitro enzyme assays or stored at −20° C. in 50% glycerol until needed.
(§2) For in vitro studies of glycosyl transferase performance in glycosylating violacein and violacein derivatives, purified glycosyl transferases were prepared as described in Example 4 and in vitro enzyme assays run as described below in Table 19.
(§3) The reaction mixture was scaled up or down as required. The reaction mixture was incubated without shaking at 30° C. for 24 hours. Extraction and analysis were performed as described in Examples 3 and 5. To confirm the identity of the produced glycosides LC-MS/QTOF was used as described above to confirm the expected mass and fragmentation pattern of each detected molecule. Quantification of violacein glycoside or other violacein derivative glycoside production was done by comparing the peak area of the substrate and the produced glycoside with authentic analytical standards (where available), where a standard was unavailable, quantification was achieved by comparing with an authentic analytical standard of the substrate. % Conversion of a substrate to a glycoside by specific Glycosyl transferases was calculated by measuring the decrease in substrate and increase in product after 24 h incubation. […]

[2] = In vitro glycosylation of violacein by purified UGT enzymes (% conversion); type: biochemical; settings: for Product % production: Mono-glucoside / Product % production: Total conversion / Product % production: Tetra-glucoside / Product % production: Tri-glucoside / Product % production: Di-glucoside / Product % production: Penta-glucoside: 350 μM violacein, 24 h incubation at 30° c.
Experimental: as §1, §2, §3

B2: Bs109_1: glycosyltransferase from Bacillus subtilis (SEQ ID NO: 68) (protein, listed as Bacillus subtilis)
chain: MKKYHISMINIPAYGHVNPTLALVEKLCEKGHRVTYATTEEFAPAVQQAGGEALLYHTSLNIDPKQIREMMEKNDAPLSLLKESLSILPQLEELYKDDQPDLIIYDFVALAGKLFAEKLNVPVIKLCSSYAQNESFQLGNEDMLKKIREAEAEFKAYLEQEKLPAVSFEQLAVPEALNIVFMPKSFQIQHETFDDRFCFVGPSLGERKEKESLLIEKDDRPLMLISLGTAFNAWPEFYKMCIKAFRDSSWQVIMSVGKAIDPESLEDIPANFTIRQSVPQLEVLEKADLFISHGGMNSTMEAMNAGVPLVVIPQMYEQELTANRVDELGLGVYLPKEEVTVSSLQEAVQAVSSDQELLSRVKNMQKDVKEAGGAERAAAEIEAFMKKSAVPQ
- Product % production: Mono-glucoside [1]: 2.12%
- Product % production: Tetra-glucoside [1]: 3.34%
- Product % production: Total conversion [1]: 6.69%
- Product % production: Tri-glucoside [1]: 1.23%
- Product % production: Mono-glucoside [2]: 9.02%
- Product % production: Tetra-glucoside [2]: 11.12%
- Product % production: Total conversion [2]: 30.93%
- Product % production: Tri-glucoside [2]: 10.80%

B3: Bs109A1: glycosyltransferase from Bacillus subtilis (SEQ ID NO: 70) (protein, listed as Bacillus subtilis)
chain: MKKHHISMINIPAYGHVNPTLALVEKLCEKGHRVTYATTEEFAPAVQQAGGEALIYHTSLNIDPKQIREMMEKNDATLSLLKESLSILPQLEELYKDDQPDLIIYDFVALAGKLFADKLNVPVIKLCSSYAQNESFQLGNEDMLKKIKEAEAEFKAYLEQEQLPAVSFEQLAVPEALNIVFMPKSFQIQHETFDDRFCFVGPSLGKRTEQESLLIDKGDRPLMLISLGTAFNAWPEFYKMCIDAFRDSSWQVIMSVGKSIDPESLDDTPANFTIRQSVPQLEVLAKADLFISHGGMNSTMEAMNAGVPLVVIPQMYEQELTAKRVDELGLGVYLQREEVTVSKLQEAVQAVSGDQELLSRVKSMQKDVKEAGGAERAAAEIEAFMKKSAVPQ
- Product % production: Di-glucoside [1]: 1.45%
- Product % production: Mono-glucoside [1]: 2.45%
- Product % production: Penta-glucoside [1]: 2.11%
- Product % production: Tetra-glucoside [1]: 1.98%
- Product % production: Total conversion [1]: 10.11%
- Product % production: Tri-glucoside [1]: 2.12%
- Product % production: Di-glucoside [2]: 10.57%
- Product % production: Mono-glucoside [2]: 11.05%
- Product % production: Penta-glucoside [2]: 11.46%
- Product % production: Tetra-glucoside [2]: 14.10%
- Product % production: Total conversion [2]: 62.47%
- Product % production: Tri-glucoside [2]: 15.29%

Continued, in another order:

- Product % production: Mono-glucoside [1]: 8.12%
- Product % production: Mono-glucoside [2]: 25.65%
B1: Cp73B: glycosyltransferase from Carica papaya (SEQ ID NO: 72) (protein, listed as Carica papaya)
chain: MGSEVLHHDYSQLNIFFFPFMAHGHMIPTLDMAKLFATHGAKTSIITTPLNLPFFSKSIERFSKQTGLEIGVKLLNFPSVEVGLPSGCENADSLPAGEPLIVNKFFAAAGMLKDPLERLLQEFKPDCLIADMFFPWTTDAAAKFDIPRLVFHGTSFFALSASECIRLYTPFNNVSSDSEPFLVPTLPDEIRLTRNQLADFAMKEGDENGIHRLIKEAKESELKSYGVVVNSFYELEPAYADHYRNFLKRKAWHIGPVSLCNKTVEDKAERGKRASIDEDECLKWLNSKAPNSVIYICFGSMANFNSAQLMEIATALDASGQEFIWVVRREKNENNQEDWLPEGFEQRTEGKGLIIRGWAPQVLILEHEAVGGFVTHCGWNSTLEGVTAGMPMVTWPVSAEQFYNEKLVTEVLKIGLSVGVKKWVRSEGDFVSREKVEQAVREIMVGSEAVERRMRAKAMADMARAAVEKGGSSYNDLNALLREVSLMRRQQSQNQ
- Product % production: Total conversion [1]: 8.12%
- Product % production: Total conversion [2]: 25.65%

- Product % production: Di-glucoside [1]: 0.15%
- Product % production: Mono-glucoside [1]: 0.12%
- Product % production: Penta-glucoside [1]: 0.78%
- Product % production: Tetra-glucoside [1]: 1.22%
- Product % production: Tri-glucoside [1]: 1.13%
- Product % production: Di-glucoside [2]: 8.95%
- Product % production: Mono-glucoside [2]: 8.69%
- Product % production: Penta-glucoside [2]: 10.98%
- Product % production: Tetra-glucoside [2]: 10.31%
- Product % production: Tri-glucoside [2]: 15.47%
- reduction in violacein concentration compared to the no-enzyme control ([2]; 24 h incubation at 30° C., HPLC): 75%
B4: Pt73Y: glycosyltransferase enzyme from Populus trichocarpa (SEQ ID NO. 64, 66) (protein, listed as Populus trichocarpa)
chain: MGSLGHQLHIFFLPFFAHGHMIPSVDMAKLFASRGIKTTIITTPLNAPFFSKTIQKTKELGFDINILTIKFPAAEAGLPEGYENTDAFIFSENAREMTIKFIKATTFLQAPFEKVLQECHPDCIVADVFFPWATDAAAKFGIPRLVFHGTSNFALSASECVRLYEPHKKVSSDSEPFVVPDLPGDIKLTKKQLPDDVRENVENDFSKFLKASKEAELRSFGVVVNSFYELEPAYADYYKKVLGRRAWNVGPVSLCNRDTEDKAGRGKETSIDHHECLKWLDSKKPNSVVYICFGSTTNFSDSQLKEIAAGLEASGQQFIWVVRRNKKGQEDKEDWLPEGFEERMEGVGLIIRGWAPQVLILDHEAIGAFVTHCGWNSTLEGITAGKPMVTWPIFAEQFYNEKLVTDVLKTGVGVGVKEWFRVHGDHVKSEAVEKTITQIMVGEEAEEMRSRAKKLGETARKAVEEGGSSYSDFNALIEELRWRRP
- Product % production: Total conversion [1]: 3.4%
- Product % production: Total conversion [2]: 54.41%
